Measured values taken from patent publication US8598081B2, “Specific delivery of agrochemicals” (priority 2010, dated 2013).

What was measured:
[1] = tested on: gum arabic or potato lectin; assay: Lambda cyhalothrin amount in wells with bound microcapsules, GC/MS-MS; assay type: binding; conditions: VHH coupled to lambda cyhalothrin microcapsules
Method: An ELISA-like assay setup was used to evaluate the interaction of VHH-coupled microcapsules to antigen-containing surfaces. ELISA plates (Maxisorp (Thermo Scientific Nunc) or high bind half area microplates (Greiner Bio-One)) were coated with gum arabic or potato lectin. Coatings were performed overnight with 100 μg/ml gum arabic or potato lectin in PBS. Control wells included blank wells or wells coated with unrelated antigens. Plates were washed three times with PBS with 0.05%-TWEEN®-20 and blocked with 5% skimmed milk in PBS for 1 to 2 hours. VHH-coupled lambda cyhalothrin-containing or Uvitex-containing microcapsules were diluted to appropriate densities in 1% skimmed milk in PBS with 0.05%-TWEEN®-20. Microcapsules were added to the antigen-coated or control wells and allowed to bind for 1 hour. Unbound microcapsules were removed by washing five times with PBS with 0.05%-TWEEN®-20. The bottoms of ELISA plate wells were analyzed for bound microcapsules on a macrozoom microscope system (Nikon). Microcapsules were counted using Volocity image analysis software (Perkin Elmer). A DAPI filter was used to visualize Uvitex microcapsules. […]
In another experiment, lambda cyhalothrin amounts were also determined analytically. […] The amount of lambda cyhalothrin was determined by GC/MS-MS analysis in comparison with calibration solutions. […]

grass leaf discs = assay: Leaf disc binding assay with VHH-coupled microcapsules, grass; parameters: species or system Lollium perenne; conditions: Uvitex microcapsules
Method: A leaf disc binding assay was used to evaluate the interaction of VHH-coupled microcapsules with potato, grass and azalea leaves. ø 8 mm leaf discs were sampled from the leaves of potato pot plants (variety Desiree), from the leaves of greenhouse-grown Lollium perenne and from the leaves of azalea pot plants. Leaf discs were washed three times with PBS. Microcapsules containing lambda cyhalothrin or Uvitex were diluted to appropriate densities in 1% skimmed milk in PBS with 0.05%-TWEEN®-20. Microcapsules were added to the leaf discs and settling of microcapsules and binding of targeting agents allowed for 1 hour. Unbound microcapsules were removed by washing three to five times with PBS with 0.05%-TWEEN®-20.
Leaf discs with Uvitex microcapsules were analyzed for bound microcapsules on a macrozoom microscope system (Nikon). Microcapsules were counted using Volocity image analysis software (Perkin Elmer). A DAPI filter was used to visualize Uvitex microcapsules. Controls for Uvitex microcapsules included blank microcapsules to which no VHH were coupled and microcapsules to which unrelated VHH were coupled.

[2] = ELISA-like assay of VHH-coupled microcapsules, unrelated antigen-coated wells; assay type: binding; conditions: uvitex OB microcapsules
Method: Polyurea microcapsules were produced by interfacial polymerization. With the objective to generate functionalized polyurea microcapsules, VHH were coupled to microcapsules containing either the insecticide lambda cyhalothrin or the fluorescent tracer molecule Uvitex OB and a shell with incorporated lysine to surface-expose carboxylic acid residues. Lambda cyhalothrin was dissolved in benzyl benzoate in concentrations between 30% and 66% before encapsulation. Alternatively, a core of 1.5% Uvitex in benzyl benzoate was used for easy fluorescent visualization of microcapsules. Toluene diisocyanate (TDI) and polymethylenepolyphenylene isocyanate (PMPPI) were dissolved in the oil phase in different ratios and concentrations in the oil phase to produce desired shell characteristics. Stirring speed for the emulsion was varied to control droplet size and consequently microcapsule diameter. Microcapsules with approximate diameters of 5 μm, 10 μm, or 50 μm were successfully produced. Bifunctional lysine and trifunctional diethylene triamine (DETA) were used in different ratios and/or added sequentially during encapsulation to on the one hand maximize amounts of carboxylic acids on the microcapsules' surface and on the other hand obtain sufficient strength of capsule shells. Microcapsules were washed with water after production and stored as microcapsule suspensions in water. The microcapsules were washed with 100 mM MES, 500 mM NaCl, pH 6.0 immediately before coupling of VHH using a vacuum-tight filter flask and P 1.6 filter funnel (Duran). Alternatively, glass filter holders with 0.45 μm disposable membrane filters (Millipore) or 0.45 μm 96-well deep-well filtration plates (Millipore) were used. Couplings of VHH to microcapsules were performed using carbodiimide-mediated couplings using a one-step procedure, a two-step procedure without N-hydroxysuccinimide (NHS), or a two-step procedure with NHS. The major difference between one-step coupling and two-step coupling procedures is the occurrence of cross-linking of VHH in one-step coupling procedures. The protocols for the three procedures are largely similar and differ as follows. For one-step couplings VHH were added to washed microcapsules and 1-Ethyl-3-[3-dimethylaminopropyl]carbodiimide Hydrochloride (EDC) (Pierce) was added and coupling reaction was allowed for 2 hours at room temperature. For two-step couplings washed microcapsules were first activated with EDC in the presence or absence of NHS. Excess unreacted EDC (and NHS) were removed by quick sequential washes with ice-cold buffers and VHH were added and allowed to react with activated carboxylic acids on microcapsule shells. For ø 10 μm microcapsules 2-20 μg VHH were coupled per mg microcapsules. […]

| Molecule | increase of amounts of lambda cyhalothrin in wells coated with antigen compared to blank microcapsules [1] [fold] | increase of amounts of lambda cyhalothrin over blank wells not coated with antigen [1] [fold] | more microcapsules bound to leaf surfaces compared to blank microcapsules (grass leaf discs) | more microcapsules bound to leaf surfaces compared to microcapsules coupled with unrelated VHH (grass leaf discs) | Area of bound microcapsules ([2]; no coating (second series, with unrelated antigen rows), surface coverage 100%) | Area of bound microcapsules ([2]; unrelated antigen, surface coverage 4%) | Area of bound microcapsules ([2]; unrelated antigen, surface coverage 20%) | Area of bound microcapsules ([2]; unrelated antigen, surface coverage 100%) |
| --- | --- | --- | --- | --- | --- | --- | --- | --- |
| VHH 3E6: VHH binding gum arabic, potato lectin and leaf surface; SEQ ID NO:7 by order of the list (protein, listed as Lama glama, 3E6) VHH: QVQLQESGGGLVQPGGTLSLSCAASGFNVRWYGMGWFRQAPGKEREGVACISALQETTAYADSVKGRFTLSRDNPKNTLSLQMNNLQPEDTGVYYCATTDCDDSSRMTYTSYLGQGTQVTVSS | 23 | 27 | – | – | – | – | – | – |
| Microcapsules containing uvitex OB VHH 3E6: polyurea microcapsules containing the fluorescent tracer Uvitex OB, coupled with (monovalent) VHH 3E6 (conjugate, left off: small tags and cut ends, polyurea microcapsules containing the fluorescent tracer Uvitex OB, coupled with (monovalent) VHH 3E6) VHH: QVQLQESGGGLVQPGGTLSLSCAASGFNVRWYGMGWFRQAPGKEREGVACISALQETTAYADSVKGRFTLSRDNPKNTLSLQMNNLQPEDTGVYYCATTDCDDSSRMTYTSYLGQGTQVTVSS | – | – | three-fold | two-fold | 68.181 | 23.525 | 47.906 | 84.508 |
